T1: H. pylori catalase (Helicobacter pylori, UniProt P77872 1-505)
T1 construct: mature; also called katalase; immunizing antigen
T1 sequence (looked up): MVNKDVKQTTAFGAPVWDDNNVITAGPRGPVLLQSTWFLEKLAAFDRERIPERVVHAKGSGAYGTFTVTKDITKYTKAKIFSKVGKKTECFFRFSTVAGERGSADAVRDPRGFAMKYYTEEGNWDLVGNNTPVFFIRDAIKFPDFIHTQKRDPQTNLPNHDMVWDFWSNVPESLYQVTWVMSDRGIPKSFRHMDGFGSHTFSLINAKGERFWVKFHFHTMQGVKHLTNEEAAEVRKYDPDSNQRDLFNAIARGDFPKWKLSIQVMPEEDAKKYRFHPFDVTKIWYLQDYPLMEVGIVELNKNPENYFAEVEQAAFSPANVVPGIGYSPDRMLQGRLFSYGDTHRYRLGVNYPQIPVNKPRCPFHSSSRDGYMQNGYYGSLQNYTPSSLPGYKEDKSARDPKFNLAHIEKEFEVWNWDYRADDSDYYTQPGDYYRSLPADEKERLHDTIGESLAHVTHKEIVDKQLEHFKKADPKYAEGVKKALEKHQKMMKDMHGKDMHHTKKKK

B1: monoclonal antibody HP25.2m/2H10 (antibody, IgG2a, V domains shown)
VH: VQLLEQPGAELAKPGASVKMSCKASGYTFTNYWIHWVKQRPGQGLKWIGYINPATGSTSYNQDFQDRATLTADKSSTTAYMQLTSLTSEDSSVYYCAREGYDGFDSWGQGTTLTVSS
VL: ELVLTQSPAIMSASPGEKVTMTCSASSSVNYMYWYQQKSGTSPKRWIYDTSKLASGVPARFSGSGSGTSYSLTLSSMEAEDAATYYCQQWSSNPYTFGGGTKLEIK
notes: also called HP25.2m/2H10 (K10); HP25.2m/2Hallin (K10)
B2: monoclonal antibody HP25.6m/1B5 (antibody, IgG1, V domains shown)
VH: EVQLQQSGAELVKPGASVKLSCTSSGFNIKDTYVHWMKQRPEQGLEWIGKIDPANGKTKYDPIFQAKATMTADASSNTAYLQLSSLTSEDTAVYYCALPIYYASSWFAYWGQGTLVTVSA
VL: DIVMTQSHKFMSTSVGDRVSITCKASQDVGTSVAWYQQKPGHSPKLLIYWTSTRHTGVPDRFTGSGSGTDFILTISNVQSEDLADYFCQQYSSSPTFGGGAKVEIK
notes: also called HP25.6m1/1B5

Target: T1, H. pylori catalase
Test: SPR (BIAcore), catalase amine-coupled on CM5 chip, antibody 20-670 nM in flow
Method: Catalase was Immobilized through amine coupling on the dextrane matrix of the BIAcore CM5 sensor chip. For the activation of the dextrane matrix 45 μl of a 1:1-mixture of 0.05 M N-hydroxysuccinimide (NHS) and 0.2 M 1-ethyl-3-3-dimethylaminopropyl)carbodiimide (EDC) solution was conducted over the sensor chip at a flow rate of 5 μl/min. Then, the catalase (35 μl; 50 μg/ml in 10 mM sodium acetate, pH 5.0) were bound to the dextrane matrix. The remaining NHS ester was deactivated with 1 M ethanolamine (35 μl). Catalase that was not covalently bound to the dextrane matrix was removed by regenerating the sensor chip with HCl (10 mM; 15 μl).
By adding the catalase-specific monoclonal antibodies, these were made react with immobilized catalase and the mass attachment to the detector was measured. Antibody solutions in different concentrations ranging from 20 to 670 nM were used. They were injected via the catalase immobilized on the sensor chip at a flow rate of 25 μl/min each.
The values for the rate constants of the adsorption ($kon$) and desorption ($koff$) of the antibody could be calculated (BIAevaluation software 3.0).

Binder	Kd [pM]	koff [s⁻¹]	kon [M⁻¹ s⁻¹]
B1	271	3.9e-05	144000
B2	681	3.86e-05	56700

Reference: patent US7129053 (DAKOCYTOMATION DENMARK A S, dated 2006)
